{"source": "patent US20260029399A1", "test_in_all_cases": "cell-based or functional assay", "key": {"[1]": {"target": "T1, IL-13Rα1 receptor on Jurkat cells (UniProt P78552)", "T1 sequence": "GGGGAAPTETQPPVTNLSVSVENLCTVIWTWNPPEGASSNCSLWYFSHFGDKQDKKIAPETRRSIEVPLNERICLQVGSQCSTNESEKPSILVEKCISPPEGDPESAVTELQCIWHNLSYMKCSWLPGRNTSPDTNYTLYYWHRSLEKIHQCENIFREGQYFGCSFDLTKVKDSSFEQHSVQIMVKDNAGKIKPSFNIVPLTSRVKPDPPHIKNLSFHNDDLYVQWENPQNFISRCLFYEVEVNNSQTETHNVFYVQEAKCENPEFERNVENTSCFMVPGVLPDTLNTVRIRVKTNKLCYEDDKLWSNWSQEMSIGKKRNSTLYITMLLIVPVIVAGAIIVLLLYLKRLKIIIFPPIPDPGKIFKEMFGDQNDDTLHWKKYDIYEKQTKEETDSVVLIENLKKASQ"}, "[2]": {"target": "CMV C7 TCR on C7 TCR-expressing T cells", "sequence (chain, as listed by the source)": "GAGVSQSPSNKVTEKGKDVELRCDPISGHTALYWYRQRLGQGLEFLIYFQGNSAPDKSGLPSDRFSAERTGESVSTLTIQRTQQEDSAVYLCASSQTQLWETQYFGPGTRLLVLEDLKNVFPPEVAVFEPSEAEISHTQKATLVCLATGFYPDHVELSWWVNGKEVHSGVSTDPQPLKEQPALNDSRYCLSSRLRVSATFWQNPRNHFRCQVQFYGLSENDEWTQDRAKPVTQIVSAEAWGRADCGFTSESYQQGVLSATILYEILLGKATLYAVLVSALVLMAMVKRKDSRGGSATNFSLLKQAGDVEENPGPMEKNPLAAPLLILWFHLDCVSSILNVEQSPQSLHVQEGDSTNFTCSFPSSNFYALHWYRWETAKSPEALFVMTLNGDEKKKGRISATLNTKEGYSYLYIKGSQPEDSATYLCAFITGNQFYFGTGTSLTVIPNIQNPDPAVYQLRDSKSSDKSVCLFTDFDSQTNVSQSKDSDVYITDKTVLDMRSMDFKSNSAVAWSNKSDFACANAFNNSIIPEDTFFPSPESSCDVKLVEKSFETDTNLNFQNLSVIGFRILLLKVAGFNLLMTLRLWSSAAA"}, "[3]": {"target": "IG4 TCR (variant not stated) on IG4 TCR-expressing T cells"}, "[4]": {"target": "868 TCR (Beta Chain-P2A-Alpha Chain) on 868 TCR-expressing T cells", "sequence (chain, as listed by the source)": "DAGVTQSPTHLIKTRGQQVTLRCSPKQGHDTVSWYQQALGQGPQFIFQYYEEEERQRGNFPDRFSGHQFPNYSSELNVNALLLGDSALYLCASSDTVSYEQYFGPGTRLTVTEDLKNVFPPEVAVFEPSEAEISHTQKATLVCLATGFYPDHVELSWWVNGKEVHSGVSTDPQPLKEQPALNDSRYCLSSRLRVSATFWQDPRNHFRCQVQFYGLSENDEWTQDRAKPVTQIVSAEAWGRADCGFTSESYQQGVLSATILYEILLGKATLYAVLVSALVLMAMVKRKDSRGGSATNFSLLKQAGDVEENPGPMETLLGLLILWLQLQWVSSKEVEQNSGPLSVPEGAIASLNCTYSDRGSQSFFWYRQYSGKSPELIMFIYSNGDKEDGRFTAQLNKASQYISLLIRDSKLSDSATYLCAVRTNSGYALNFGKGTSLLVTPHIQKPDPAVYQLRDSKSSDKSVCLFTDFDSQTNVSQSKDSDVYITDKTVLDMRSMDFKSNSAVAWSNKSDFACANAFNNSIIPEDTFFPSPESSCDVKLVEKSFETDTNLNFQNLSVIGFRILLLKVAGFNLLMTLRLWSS"}}, "data": [{"substance": "IL-13 - CD8α stalk linker (SEQ ID NO: 4) - PDGFR transmembrane domain, displayed on lentivirus (from UniProt P35225 35-146) (ligand)", "values": [{"measurement": "infection of Jurkat cells bearing the IL13Rα1 receptor (GFP reporter)", "setting": "[1]", "result": 88.5, "unit": "%"}]}, {"substance": "IL-13 - GAPGAS linker (SEQ ID NO: 5) - PDGFR transmembrane domain, displayed on lentivirus (from UniProt P35225 35-146) (ligand)", "values": [{"measurement": "infection of Jurkat cells bearing the IL13Rα1 receptor (GFP reporter)", "setting": "[1]", "result": 1, "unit": "%"}]}, {"substance": "IL-13 - PDGFR linker (SEQ ID NO: 3) - PDGFR transmembrane domain, displayed on lentivirus (from UniProt P35225 35-146) (ligand)", "values": [{"measurement": "infection of Jurkat cells bearing the IL13Rα1 receptor (GFP reporter)", "setting": "[1]", "result": 6.1, "unit": "%"}]}, {"substance": "IL-13 extracellular targeting domain: full-length IL-13 - IgG4 hinge linker - PDGFR transmembrane domain, displayed on lentivirus (from UniProt P35225 35-146) (ligand)", "values": [{"measurement": "transduction (cells expressing the GFP reporter after mixing)", "setting": "[1]", "result": 85.2, "unit": "%"}]}, {"substance": "disulfide-stabilized CMV NLV pMHC displayed on lentivirus (peptide-MHC)", "values": [{"measurement": "transduction rate", "setting": "[2]", "result": 21.8, "unit": "%"}]}, {"substance": "disulfide-stabilized NYESO-1 pMHC displayed on lentivirus (peptide-MHC)", "values": [{"measurement": "transduction rate", "setting": "[3]", "result": 19, "unit": "%"}]}, {"substance": "disulfide-stabilized SL9 pMHC displayed on lentivirus (peptide-MHC)", "values": [{"measurement": "transduction rate", "setting": "[4]", "result": 22.1, "unit": "%"}]}]}
